# Experiment: soluble on expression in E. coli; label from the status in PepcDB or PDB records
row,Sequence,soluble on expression in E. coli
1,MGSDKIHHHHHHMKASDFREWVGKITQLSRGQKEQTKHKLGGMVPRIEVAKWLESSFEPICPVCQSNHFYRWGYQAGLQRFYCRMCKHTFTAISGTPLARLRHKDQWLNYSAALIEGLTVRASARQCRIDKNTSFRWRHRFLTLPAAAKANHLEGIVEADETFFPVSCKGQRQLDRPPRKRGKQIHMRGTGKDQVPVLIVRDRSGATADFMLDAIDRKAIEPPLRTVLEKDVIFCSDGAAVYRSVARSLGITHRPVNLAAGVRVIAGVYHIQNVNAYHSRLKQWMKRFHGVATRYLENYLGWFRWLDQQENLSSPIVPLQAALGRENQFQLLTNT,not soluble
2,MATLVVNKLGAGVDSGRQGSRGTAVVKVLECGVCEDVFSLQGDKVPRLLLCGHTVCHDCLTRLPLHGRAIRCPFDRQVTDLGDSGVWGLKKNFALLELLERLQNGPIGQYGAAEESIGISGESIIRCDEDEAHLASVYCTVCATHLCSECSQVTHSTKTLAKHRRVPLADKPHEKTMCSQHQVHAIEFVCLEEGCQTSPLMCCVCKEYGKHQGHKHSVLEPEANQIRASILDMAHCIRTFTEEISDYSRKLVGIVQHIEGGEQIVEDGIGMAHTEHVPGTAENARSCIRAYFYDLHETLCRQEEMALSVVDAHVREKLIWLRQQQEDMTILLSEVSAACLHCEKTLQQDDCRVVLAKQEITRLLETLQKQQQQFTEVADHIQLDASIPVTFTKDNRVHIGPKMEIRVVTLGLDGAGKTTILFKLKQDEFMQPIPTIGFNVETVEYKNLKFTIWDVGGKHKLRPLWKHYYLNTQAVVFVVDSSHRDRISEAHSELAKLLTEKELRDALLLIFANKQDVAGALSVEEITELLSLHKLCCGRSWYIQGCDARSGMGLYEGLDWLSRQLVAAGVLDVA,soluble
3,MFSGKRLKKRRITLGYSQSELADKLHINRSSYFNWENEKTKPNQSNLKQLAILLDVPETYFESEYKIVNTYLQLSLQNQEKVEKYAEELLQTQKVHEKIVPLFAVEVLSEIQLSAGPGEGLYDEFETETVYSEDEYTGFDIATWISGNSMEPVYKDGEVALIRSTGFDHDGAVYALNWNGSLYIKKLYREEDGFRMVSINPDVAERFIPFEDEIRIVGKIVGHFMPVIGGLEHHHHHH,soluble
4,SLSIYSFSQITRSLFLSNGVAANDKLLLSSNRITAIVNASVEVVNVFFEGIQYIKVPVTDARDSRLYDFFDPIADLIHTIDMRQGRTLLHCMAGVSRSASLCLAYLMKYHSMSLLDAHTWTKSRRPIIRPNNGFWEQLINYEFKLFNN,not soluble
5,MGLKLDLTWFDKSTEDFKGEEYSKDFGDDGSVMESLGVPFKDNVNNGCFDVIAEWVPLLQPYFNHQIDISDNEYFVSFDYRDGDW,soluble
6,MLTRGFTSIGKIASRGLSSTFYQDAFQLSDQLTEDERSLMLSAREYCQERLLPRVTEAYRTEKFDPSLIPEMGSMGLLGAPYQGYGCAGTSTVGYGLIAREVERVDSGYRSTMSVQTSLVIGPIYNYGSEDQKQKYIPDLASGKKIGCFGLTEPNHGSNPGGMETKATWDETTKTYKLNGSKTWISNSPVSDVMVVWARSARHNNKIKGFILERGMKGLTTPKIEGKLSLRASITGQIAMDDVPVPEENLLPNAEGLQGPFGCLNNARLGIAWGALGAAEECFHLARQYTLDRQQFGRPLAQNQLMQLKMADMLTEISLGLQGCLRVSRLKDEGKVQSEQISIIKRNSCGKALEVARKARDMLGGNGIVDEYHIMRHMVNLETVNTYEGTHDVHALILGRAITGLNGFC,not soluble
7,MGHHHHHHSNKIERIIARLQRRIAEGQPEEQYEAAQETRLVAARYSKQGNWAAAVDILASVSQTLLRSGQGGSGGDLAVLLVDTFRQAGQRVDGASRGKLLGCLRLFQPGEPVRKRFVKEMIDWSKKFGDYPAGDPELHHVVGTLYVEEGEFEAAEKHLVLGTKESPEVLARMEYEWYKQDESHTAPLYCARAVLPYLLVANVRAANTAYRIFTSALVEDNKGLTVQNIGSQSAELRIFPSLPLLNFISMLLLSVQKGSPDLFRQLKSKYEANLNELNGIWDTALELIAEMYFGIQRPRQSNPLLDMMGSLFGGGGGAPSKAALRRIDTPAAEGLD,soluble
8,SKVFNLDRGNTLSVSLFSGVTNSKELLNSMLDGSLKLEVSFLNASLIPGIFPLLAAAQKALISKSRDSLSTRTLHSELVYNYSGSKHITESLKRCGISENTTYILAARFNASPVEMEEVAKLINGKEIDLEELKTHANQANILKHYKITSQELGISSLGDAIVCRIAARDAL,soluble
9,MSVVEEATDDALYPIAVLIDELRNEDVTLRLNSIRKLSTIALALGVERTRNELIQFLTDTIYDEDEVLLVLAEQLGNFTPLVGGPDHVHCLLLPLENLATVEETVVRDKAVESLRKIADKHSSASLEEHFVPMLRRLATGDWFTSRTSACGLFSVVYPRVSPAIKSELKSMFRTLCRDDTPMVRRAAAAKLGEFAKVFEKTAVIEGLHSSLTDLHVDEQDSVRLLTVESAIAFGTLLDKANKKKLIEPILIELFDDKSWRVRYMVAEKLIEIQNVLGEDMDTTHLVNMYTNLLKDPEGEVRCAATQRLQEFALNLPEDKRQNIICNSLLNVAKELVTDGNQLVKSELAGVIMGLAPLIGKEQTVSELLPIYMQLLNDQTPEVRLNIISSLDKVNEVIGAAQLSTSLLPAIVGLAEDGKWRVRLAIVQFMPLLASQLGQEFFDEKLLPLCLNWLTDHVFSIREASTLIMKELTQKFGGQWASTNIVPKMQKLQKDTNYLQRMTCLFCLNTLSEAMTQEQILKEIMPIVKDLVEDDVPNVRFNAAKSLKRIGKNLTPSTLTSEVKPLLEKLGKDSDFDVRYFSEEAKNSLGL,not soluble
10,MGHHHHHHSHMADIPSFQGTTLTRDTVRQLVSDIFIYKMPFNIELGLELQQFEADKAVLTFARQDKLIGNAAQKILHGGVIAAGLDVAAGLVCVGNTLLRHETISDQEFHHRLARMGTIDMRVDYLRPGYGERFTITSTLLRGGNKIAVARAELHNEQGSHLASATATYIVG,soluble
11,MSNRFAVILAAGKGTRMKSKLYKVLHPVCGKPMVQHVVDQVSQLGLQKLVTVVGHGAEMVQEQLGNVSEFALQAEQLGTAHAVDQAAGVLANEEGTTLVICGDTPLITAETMEALLQQHKEAGAMATVLTAYIEEPAGYGRIVRNENGHVEKIVEHKDANEKELAIKEINTGTYCFDNKALFASLSKVSNDNVQGEYYLPDVIEILKNEGHIVSAYQTEHFDETLGVNDRVALSQAEIIMKNRINRKNMVNGVTIIDPSNTYISADAIIGSDTVLHPGTIIEGNTVIGSDCEIGPHTVIRDSEIGDRTTIRQSTVHDSKLGTEVSVGPFAHIRPDSVIGDEVRVGNFVEIKKTVFGNRSKASHLSYIGDAQVGEDVNLGCGSITVNYDGKNKFKTVIGNGVFIGCNSNLVAPVTVEDGAYVAAGSTITENVPSKALSVARARQVNKEDYVDQLLNKKKS,not soluble
12,MAHHHHHHMLRVSCRFFGALQEIFSRGQGVWNLDFGNSPTTEDLIFNSAPKTSTPPFHVLDLEGNIVNKINEPVVPKETLVKIMETMIRSNTIDNILLEAQRQGRISFYLTALGEEATVVGTAAGLEIRDEAFLQYREAGFLLYRGYNIPQLVAQCMGNVEDVLKGRQMPIHYGSRELNVHMVSSPLATQIPHAAGAGYAFRLENEELSDESKSRVAVVIFGEGAASEGDFHGGVNFAAATGSNTLFVVRNNGYAISTPARVQYKGDGVLARGIGYGIPSARVDGQDVLAILQAVQQARQIIRTTNQPVLIEALCYRLQHHSSSDDSGMYRSSDEIENFLALSPLDRFEKFLVKRDLWTAEHTGALAKQVREELLQELRRQELLPHWPADVMHDDVYKVKTPDLVKAQKELQAHYERNRGFYGK,not soluble
13,MSSDKFKLDTLFDDNDEIIEPDGADVKKRNVAYYYHKDVGHFHYGQLHPMKPQRLVVCNDLVVSYEMPKYMTVVESPKLDAADISVFHTEDYVNFLQTVTPKLGLTMPDDVLRQFNIGEDCPIFAGLWDYCTLYAGGSVEGARRLNHKMNDIVINWPGGLHHAKKSEASGFCYVNDIVLGILELLKYHKRVLYIDIDIHHGDGVQEAFNNSDRVMTVSFHRFGQYFPGSGSIMDKGVGPGKYFAINVPLMAAIRDEPYLKLFESVISGVEENFNPEAIVLQCGSDSLCEDRLGQFALSFNAHARAVKYVKSLGKPLMVLGGGGYTLRNVARCWALETGVILGLRMDDEIPGTSLYSHYFTPRLLRPNLVPKMNDANSAAYLASIEKETLACLRMIRGAPSVQMQNIVGIRLDEIEQIEENERLQKSSKSSIEYEVGKVSEKMEEECFVEEDSKPPSFPPGQDPRRIGQYWGYDRSGLAPPRSHSDVIEEAKYEDRDRRKDLNIPGIP,not soluble

# Source: the DeepSol protein solubility set
